Tests used:
[1] = system: OVA-specific IgG antibodies; assay: OVA-specific IgG in sera of immunized mice (indirect ELISA); type: in vivo, BALB/c mice; settings: OVA 100 μg alone, s.c. Days 1 and 15, sera 2 weeks after last immunization
Description: Male BALB/c mice were immunized subcutaneously with OVA 100 μg alone or with OVA 100 μg dissolved in saline containing analogues (7.5, 15 or 30 μg) on Days 1 and 15. Sera were collected 2 weeks after the last immunization. OVA-specific IgG antibodies in the sera were measured by an Indirect ELISA.

[2] = system: Total IgG1 and IgG2a antibodies; assay: Total IgG1 and IgG2a in sera of OVA-immunized mice (sandwich ELISA); type: in vivo, BALB/c mice; settings: OVA 100 μg alone
Description: Male BALB/c mice were immunized subcutaneously with OVA 100 μg alone or with OVA 100 μg dissolved in saline containing the MDP or MDP-ET analogues (7.5, 15 or 30 μg) on Days 1 and 15. Sera were collected 2 weeks after the last immunization. Total IgG1 and IgG2a antibodies in the sera were measured by Sandwich ELISA.
Measurement of total IgG subtypes such as IgG1 and IgG2a are useful to assess type immunity produced. In mice, IgG1 is integrated with Th2-type response, while Th1-type response is integrated with the production of IgG2a, IgG2b, and IgG3 antibodies. Antibody subclass is indispensable for complement fixation and provides protection. IgG2a and IgG2b can fix the complement stronger than IgG1. Vaccine adjuvants showing broad subclass distribution is beneficial against pathogens. […] But, it didn't induce much significant IgG1 response i.e., Th2 type, than MDP+OVA group.

B1: OVA: Ovalbumin (OVA) antigen, given alone (protein, UniProt P01012 2-386, looked up)
Ovalbumin: GSIGAASMEFCFDVFKELKVHHANENIFYCPIAIMSALAMVYLGAKDSTRTQINKVVRFDKLPGFGDSIEAQCGTSVNVHSSLRDILNQITKPNDVYSFSLASRLYAEERYPILPEYLQCVKELYRGGLEPINFQTAADQARELINSWVESQTNGIIRNVLQPSSVDSQTAMVLVNAIVFKGLWEKAFKDEDTQAMPFRVTEQESKPVQMMYQIGLFRVASMASEKMKILELPFASGTMSMLVLLPDEVSGLEQLESIINFEKLTEWTSSNVMEERKIKVYLPRMKMEEKYNLTSVLMAMGITDVFSSSANLSGISSAESLKISQAVHAAHAEINEAGREVVGSAEAGVDAASVSEEFRADHPFLFCIKHIATNAVLFFGRCVSP
With B1 the “Log(2) IgG Antibody Titre” value [1] was 12.64, the “Log(2) Total IgG1 Antibody Titre” value [2] was 14.39 and the “Log(2) Total IgG2a Antibody Titre” value [2] was 11.89.

From patent US12134664B2, “Muramyl peptide derivatives” (Bharat Biotech International Limited, priority 2015, dated 2024)
